Assay results from publication PMC12198772 (PNAS Nexus, 2025).
Values joined by “and” are separate entries in the source; they are usually repeats but may differ in a detail not shown here. Equal values may be shown once. Read-outs that look alike come from different tables or passages of the source.

Columns and labels:
Assay in all cases: BLI
human claudin-19 [1] = target: T1, human claudin-19 (human, UniProt Q8N6F1 1-224)
T1 sequence: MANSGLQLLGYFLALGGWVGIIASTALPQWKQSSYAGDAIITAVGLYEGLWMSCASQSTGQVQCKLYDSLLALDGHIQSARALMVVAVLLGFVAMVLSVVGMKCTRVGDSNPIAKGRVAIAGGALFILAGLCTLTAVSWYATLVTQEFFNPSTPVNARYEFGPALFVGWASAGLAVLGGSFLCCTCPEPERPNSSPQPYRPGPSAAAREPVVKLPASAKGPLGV

human claudin-6 [2] = target: T2, human claudin-6 (human, UniProt P56747 1-220)
T2 sequence: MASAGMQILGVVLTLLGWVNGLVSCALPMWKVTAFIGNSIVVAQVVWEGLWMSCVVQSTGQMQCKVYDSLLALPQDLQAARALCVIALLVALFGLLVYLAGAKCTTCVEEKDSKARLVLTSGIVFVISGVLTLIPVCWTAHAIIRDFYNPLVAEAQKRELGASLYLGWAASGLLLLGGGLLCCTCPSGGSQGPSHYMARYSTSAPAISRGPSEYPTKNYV

murine claudin-4 [3] = target: T3, murine claudin-4 (mouse, UniProt O35054 1-210)
T3 sequence: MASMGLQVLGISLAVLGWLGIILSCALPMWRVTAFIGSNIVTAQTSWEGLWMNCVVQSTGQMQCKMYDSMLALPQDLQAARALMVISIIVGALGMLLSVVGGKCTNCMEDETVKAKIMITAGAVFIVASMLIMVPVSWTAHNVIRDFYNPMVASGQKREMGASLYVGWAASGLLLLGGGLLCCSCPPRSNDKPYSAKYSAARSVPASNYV

human claudin-9 [4] = target: T4, human claudin-9 (human, UniProt O95484 1-217)
T4 sequence: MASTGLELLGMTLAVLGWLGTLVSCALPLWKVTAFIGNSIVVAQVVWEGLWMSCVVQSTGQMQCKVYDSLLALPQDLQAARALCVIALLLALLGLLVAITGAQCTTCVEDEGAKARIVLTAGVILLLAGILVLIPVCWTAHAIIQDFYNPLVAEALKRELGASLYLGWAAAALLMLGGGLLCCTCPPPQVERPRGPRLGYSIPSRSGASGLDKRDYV

human claudin-17 [5] = target: T5, human claudin-17 (human, UniProt P56750 1-224)
T5 sequence: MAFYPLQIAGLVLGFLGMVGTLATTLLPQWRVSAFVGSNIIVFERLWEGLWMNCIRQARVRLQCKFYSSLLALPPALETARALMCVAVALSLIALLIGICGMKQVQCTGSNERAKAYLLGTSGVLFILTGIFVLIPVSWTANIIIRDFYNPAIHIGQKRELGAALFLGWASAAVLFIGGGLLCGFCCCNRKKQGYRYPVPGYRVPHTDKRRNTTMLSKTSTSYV

[6] = target: T6, human eye lens-specific protein 20, histidine-tagged (human) (UniProt P55344)
T6 sequence: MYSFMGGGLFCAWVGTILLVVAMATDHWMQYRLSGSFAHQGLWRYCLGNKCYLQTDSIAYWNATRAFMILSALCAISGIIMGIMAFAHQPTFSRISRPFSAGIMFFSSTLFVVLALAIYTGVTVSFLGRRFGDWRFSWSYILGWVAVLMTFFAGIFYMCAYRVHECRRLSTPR

human occludin = human occludin (Homo sapiens, UniProt Q16625)
Chain of human occludin (Q16625 whole entry, the tested form may be a part): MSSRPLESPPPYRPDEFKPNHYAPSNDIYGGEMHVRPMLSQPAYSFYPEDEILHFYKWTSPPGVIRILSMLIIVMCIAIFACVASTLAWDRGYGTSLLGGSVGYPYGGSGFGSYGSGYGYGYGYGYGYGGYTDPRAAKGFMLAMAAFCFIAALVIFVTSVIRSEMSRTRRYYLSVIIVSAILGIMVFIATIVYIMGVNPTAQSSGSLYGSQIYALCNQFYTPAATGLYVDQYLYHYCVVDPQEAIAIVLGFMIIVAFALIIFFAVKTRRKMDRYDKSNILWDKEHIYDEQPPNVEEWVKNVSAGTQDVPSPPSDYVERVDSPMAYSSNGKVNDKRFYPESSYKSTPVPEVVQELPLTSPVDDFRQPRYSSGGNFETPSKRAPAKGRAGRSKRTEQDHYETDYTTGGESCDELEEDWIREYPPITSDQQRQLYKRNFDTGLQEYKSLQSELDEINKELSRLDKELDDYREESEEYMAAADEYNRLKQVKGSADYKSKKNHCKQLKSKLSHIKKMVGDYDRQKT

[7] = target: C-terminal domain of Clostridium perfringens enterotoxin, tag removed (Clostridium perfringens, UniProt P01558)
[8] = target: T7, human claudin-18 splice variant 18.1 (human, UniProt P56856)
[9] = target: T8, human claudin-18 splice variant 18.2 (human, UniProt P56856-2)
human claudin-9 [10] = target: T9, human claudin-9 (human, UniProt O95484)
human claudin-1 [11] = target: T10, human claudin-1 (human, UniProt O95832)
T10 sequence (O95832 whole entry): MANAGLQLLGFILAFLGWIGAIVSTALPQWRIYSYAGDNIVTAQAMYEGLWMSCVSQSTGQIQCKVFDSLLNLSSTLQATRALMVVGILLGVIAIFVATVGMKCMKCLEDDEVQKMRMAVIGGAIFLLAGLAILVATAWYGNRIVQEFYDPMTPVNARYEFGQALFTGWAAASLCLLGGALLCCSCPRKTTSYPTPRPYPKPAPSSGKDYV

murine claudin-4 [12] = target: murine claudin-4 (mouse, UniProt O35054)
murine claudin-3 = murine claudin-3 (mouse, UniProt Q9Z0G9)
Chain of murine claudin-3 (Q9Z0G9 whole entry): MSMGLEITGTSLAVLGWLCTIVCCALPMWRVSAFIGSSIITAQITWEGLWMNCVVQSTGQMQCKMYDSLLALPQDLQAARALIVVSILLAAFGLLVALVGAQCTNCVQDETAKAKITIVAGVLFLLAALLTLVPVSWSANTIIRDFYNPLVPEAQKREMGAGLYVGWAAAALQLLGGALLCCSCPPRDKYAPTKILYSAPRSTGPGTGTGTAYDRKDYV

murine claudin-15 [13] = target: T11, murine claudin-15 (mouse, UniProt Q9Z0S5)
T11 sequence (Q9Z0S5 whole entry): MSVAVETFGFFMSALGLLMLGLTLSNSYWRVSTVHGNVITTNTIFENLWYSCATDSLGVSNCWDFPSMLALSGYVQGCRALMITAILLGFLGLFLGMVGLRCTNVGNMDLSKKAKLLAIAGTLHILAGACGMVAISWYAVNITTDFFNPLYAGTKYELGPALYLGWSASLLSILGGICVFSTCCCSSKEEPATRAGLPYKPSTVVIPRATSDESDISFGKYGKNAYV

human claudin-5 [14] = target: T12, human claudin-5 (human, UniProt O00501)
T12 sequence (O00501 whole entry): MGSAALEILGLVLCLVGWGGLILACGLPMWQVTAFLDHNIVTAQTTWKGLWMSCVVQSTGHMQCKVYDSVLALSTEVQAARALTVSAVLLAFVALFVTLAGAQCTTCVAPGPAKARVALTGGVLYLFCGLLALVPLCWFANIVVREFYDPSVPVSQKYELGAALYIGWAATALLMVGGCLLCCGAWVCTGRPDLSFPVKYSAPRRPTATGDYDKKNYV

human claudin-4 [15] = target: T13, human claudin-4 (human, UniProt O14493)
T13 sequence (O14493 whole entry): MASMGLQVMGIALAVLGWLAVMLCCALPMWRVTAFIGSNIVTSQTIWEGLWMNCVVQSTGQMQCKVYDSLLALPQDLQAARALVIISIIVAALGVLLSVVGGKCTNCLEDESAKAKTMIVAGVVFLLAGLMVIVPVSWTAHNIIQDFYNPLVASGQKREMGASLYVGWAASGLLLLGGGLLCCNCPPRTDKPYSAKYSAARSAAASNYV

human claudin-17 [16] = target: T14, human claudin-17 (human, UniProt P56750)
human claudin-19 [17] = target: T15, human claudin-19 (human, UniProt Q8N6F1)
human claudin-3 [18] = target: T16, human claudin-3 (human, UniProt O15551)
T16 sequence (O15551 whole entry): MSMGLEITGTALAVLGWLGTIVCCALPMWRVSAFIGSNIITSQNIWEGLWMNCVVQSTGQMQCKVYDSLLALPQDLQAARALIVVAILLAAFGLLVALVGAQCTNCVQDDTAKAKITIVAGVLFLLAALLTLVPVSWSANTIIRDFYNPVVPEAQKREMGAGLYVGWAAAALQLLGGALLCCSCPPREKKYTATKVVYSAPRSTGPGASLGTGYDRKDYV

human claudin-6 [19] = target: T17, human claudin-6 (human, UniProt P56747)
[20] = target: T7, human claudin-18 splice variant 18.1; remark: listed apart in the source
[21] = target: human peripheral myelin protein 22 (Homo sapiens, UniProt Q01453)
Chain of human peripheral myelin protein 22 (Q01453 whole entry, canonical isoform): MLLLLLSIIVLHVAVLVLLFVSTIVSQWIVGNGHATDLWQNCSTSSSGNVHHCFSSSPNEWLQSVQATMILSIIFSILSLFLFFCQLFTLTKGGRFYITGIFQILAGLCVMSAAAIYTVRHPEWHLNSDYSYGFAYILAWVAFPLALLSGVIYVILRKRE

[22] = target: T8, human claudin-18 splice variant 18.2; remark: listed apart in the source
human claudin-9 [23] = target: T9, human claudin-9; remark: listed apart in the source
human claudin-1 [24] = target: T10, human claudin-1; remark: listed apart in the source
murine claudin-15 [25] = target: T11, murine claudin-15; remark: listed apart in the source
human claudin-5 [26] = target: T12, human claudin-5; remark: listed apart in the source
human claudin-4 [27] = target: T13, human claudin-4; remark: listed apart in the source
human claudin-17 [28] = target: T14, human claudin-17; remark: listed apart in the source
human claudin-19 [29] = target: T15, human claudin-19; remark: listed apart in the source
human claudin-3 [30] = target: T16, human claudin-3; remark: listed apart in the source
human claudin-6 [31] = target: T17, human claudin-6; remark: listed apart in the source
[32] = target: Kune-kune from Drosophila melanogaster (Drosophila melanogaster, UniProt A1Z6H0)

B1: C-terminal domain of Clostridium perfringens enterotoxin, histidine-tagged (domain or fragment)
chain: EILDLAAATERLNLTDALNSNPAGNLYDWRSSNSYPWTQKLNLHLTITATGQKYRILASKIVDFNIYSNNFNNLVKLEQSLGDGVKDHYVDISLDAGQYVLVMKANSSYSGNYPYSILFQKF
- Kd (human claudin-19 [1]): 27.5 nM
- Kd (human claudin-6 [2]): 51.4 nM
- Kd (murine claudin-4 [3]): < 20 nM
- Kd (human claudin-9 [4]): < 20 nM
- Kd (human claudin-17 [5]): 27 nM

B2: COP-1 synthetic antibody fragment (sFab) without histidine tag (Fab, V domains shown)
VH: EVQLVESGGGLVQPGGSLRLSCAASGFNFSSSYIHWVRQAPGKGLEWVASISSSSGSTSYADSVKGRFTISADTSKNTAYLQMNSLRAEDTAVYYCARWFHPWWWWEYLFRGAIDYWGQGTLVTVSS
VL: DIQMTQSPSSLSASVGDRVTITCRASQSVSSAVAWYQQKPGKAPKLLIYSASSLYSGVPSRFSGSRSGTDFTLTISSLQPEDFATYYCQQSSSSLITFGQGTKVEIK
- Kd [6]: 2780 nM
- koff [6]: 0.11 s⁻¹

B3: COP-1 synthetic antibody fragment (sFab) with C-terminal histidine tag (Fab, V domains shown)
VH: EVQLVESGGGLVQPGGSLRLSCAASGFNFSSSYIHWVRQAPGKGLEWVASISSSSGSTSYADSVKGRFTISADTSKNTAYLQMNSLRAEDTAVYYCARWFHPWWWWEYLFRGAIDYWGQGTLVTVSS
VL: DIQMTQSPSSLSASVGDRVTITCRASQSVSSAVAWYQQKPGKAPKLLIYSASSLYSGVPSRFSGSRSGTDFTLTISSLQPEDFATYYCQQSSSSLITFGQGTKVEIK
- binding result (human occludin): no binding (tested: 500 nM)
- binding result [7]: no binding
- Kd [8]: 83.4 nM and 56.7 nM
- Kd [9]: 62.8 nM and 55.6 nM
- Kd (human claudin-9 [10]): 69.9 ± 1.2 nM
- Kd (human claudin-1 [11]): 76.3 nM and 73.2 nM
- Kd (murine claudin-4 [12]): 99.6 ± 1.2 nM
- Kd (murine claudin-3): 90.5 ± 1.2 nM
- Kd (murine claudin-15 [13]): 63.3 nM and 61.2 nM
- Kd (human claudin-5 [14]): 72 nM and 65.5 nM
- Kd (human claudin-4 [15]): 72.8 ± 0.9 nM
- Kd (human claudin-17 [16]): 65.5 ± 0.9 nM
- Kd (human claudin-19 [17]): 62.4 ± 1.1 nM
- Kd (human claudin-3 [18]): 64.2 ± 1.1 nM
- Kd (human claudin-6 [19]): 59 ± 0.9 nM
- Kd [20]: 92.4 ± 0.5 nM
- koff [20]: 0.0014 s⁻¹
- kon [20]: 16000 M⁻¹ s⁻¹
- t1/2 [20]: 8.3 min
- Kd [21]: 109.5 ± 0.8 nM
- koff [21]: 0.002 s⁻¹
- kon [21]: 18000 M⁻¹ s⁻¹
- t1/2 [21]: 5.8 min
- Kd [22]: 66.4 ± 0.5 nM
- koff [22]: 0.0009 s⁻¹
- kon [22]: 13000 M⁻¹ s⁻¹
- t1/2 [22]: 12.8 min
- Kd (human claudin-9 [23]): 66 ± 0.4 nM
- koff (human claudin-9 [23]): 0.0015 s⁻¹
- kon (human claudin-9 [23]): 22000 M⁻¹ s⁻¹
- t1/2 (human claudin-9 [23]): 7.7 min
- Kd (human claudin-1 [24]): 61.3 ± 0.5 nM
- koff (human claudin-1 [24]): 0.0009 s⁻¹
- kon (human claudin-1 [24]): 15000 M⁻¹ s⁻¹
- t1/2 (human claudin-1 [24]): 12.8 min
- Kd (murine claudin-15 [25]): 59 ± 0.5 nM
- koff (murine claudin-15 [25]): 0.0012 s⁻¹
- kon (murine claudin-15 [25]): 21000 M⁻¹ s⁻¹
- t1/2 (murine claudin-15 [25]): 9.6 min
- Kd (human claudin-5 [26]): 75.8 ± 0.5 nM
- koff (human claudin-5 [26]): 0.0015 s⁻¹
- kon (human claudin-5 [26]): 19000 M⁻¹ s⁻¹
- t1/2 (human claudin-5 [26]): 7.7 min
- Kd (human claudin-4 [27]): 70.6 nM and 106 nM
- Kd (human claudin-17 [28]): 80.2 ± 0.6 nM
- koff (human claudin-17 [28]): 0.0015 s⁻¹
- kon (human claudin-17 [28]): 19000 M⁻¹ s⁻¹
- t1/2 (human claudin-17 [28]): 7.7 min
- Kd (human claudin-19 [29]): 62.2 ± 0.4 nM
- koff (human claudin-19 [29]): 0.0011 s⁻¹
- kon (human claudin-19 [29]): 17000 M⁻¹ s⁻¹
- t1/2 (human claudin-19 [29]): 10.5 min
- Kd (human claudin-3 [30]): 57.9 ± 0.5 nM
- koff (human claudin-3 [30]): 0.0012 s⁻¹
- kon (human claudin-3 [30]): 21000 M⁻¹ s⁻¹
- t1/2 (human claudin-3 [30]): 9.6 min
- Kd (human claudin-6 [31]): 59.5 ± 0.4 nM
- koff (human claudin-6 [31]): 0.0011 s⁻¹
- kon (human claudin-6 [31]): 18000 M⁻¹ s⁻¹
- t1/2 (human claudin-6 [31]): 10.5 min
- Kd [32]: 238 ± 2.9 nM
- koff [32]: 0.0044 s⁻¹
- kon [32]: 18000 M⁻¹ s⁻¹
- t1/2 [32]: 2.7 min
